{"source": "patent US20160051695A1", "key": {"[1]": {"target": "human HER2 (ErbB2), human epidermal growth factor receptor 2 protein (human) (UniProt P04626)", "test": "flow cytometry on JIMT-1 cells, background without primary antibody"}, "[2]": {"target": "Jurkat cells (human T leukemia cells; do not express human HER2)", "test": "flow cytometry on HER2-negative Jurkat cells, background without primary antibody"}, "[3]": {"target": "human HER2 (ErbB2), human epidermal growth factor receptor 2 protein (human) (UniProt P04626)", "test": "flow cytometry on SKOV-3 cells, background without primary antibody"}}}
{"substance": "goat F(ab')2-anti-human IgG (H+L)-RPE (Southern Biotech, Cat. No. 2043-09)", "values": [{"measurement": "MFI", "setting": "[1]", "value": 3.29}, {"measurement": "MFI", "setting": "[2]", "value": 9}, {"measurement": "MFI", "setting": "[3]", "value": 8}]}
